Experimental data reported in doi:10.1101/2020.06.19.161133, “Structure of the yeast Nup84-Nup133 complex details flexibility and reveals universal conservation of the membrane anchoring ALPS motif” (bioRxiv, 2020).

Experiments:
Conditions in all cases: both partners purified
[1] = molecular target: T1, Nup84-Nup133CTD heterodimeric complex (Saccharomyces cerevisiae (strain ATCC …, UniProt P52891;P36161)); assay: crystal structure; Nup84-Nup133CTD with VHH-SAN8 and VHH-SAN9, 7.4 Å; same crystal form and conditions as the singly bound complex
T1 construct: Nup84, S. cerevisiae, full length; source: E. coli LOBSTR-RIL(DE3), co-expressed from a bicistronic vector, purified (Ni Sepharose, SP Sepharose, Superdex 200)
T1 sequence (P52891 whole entry, chain 1 of 2): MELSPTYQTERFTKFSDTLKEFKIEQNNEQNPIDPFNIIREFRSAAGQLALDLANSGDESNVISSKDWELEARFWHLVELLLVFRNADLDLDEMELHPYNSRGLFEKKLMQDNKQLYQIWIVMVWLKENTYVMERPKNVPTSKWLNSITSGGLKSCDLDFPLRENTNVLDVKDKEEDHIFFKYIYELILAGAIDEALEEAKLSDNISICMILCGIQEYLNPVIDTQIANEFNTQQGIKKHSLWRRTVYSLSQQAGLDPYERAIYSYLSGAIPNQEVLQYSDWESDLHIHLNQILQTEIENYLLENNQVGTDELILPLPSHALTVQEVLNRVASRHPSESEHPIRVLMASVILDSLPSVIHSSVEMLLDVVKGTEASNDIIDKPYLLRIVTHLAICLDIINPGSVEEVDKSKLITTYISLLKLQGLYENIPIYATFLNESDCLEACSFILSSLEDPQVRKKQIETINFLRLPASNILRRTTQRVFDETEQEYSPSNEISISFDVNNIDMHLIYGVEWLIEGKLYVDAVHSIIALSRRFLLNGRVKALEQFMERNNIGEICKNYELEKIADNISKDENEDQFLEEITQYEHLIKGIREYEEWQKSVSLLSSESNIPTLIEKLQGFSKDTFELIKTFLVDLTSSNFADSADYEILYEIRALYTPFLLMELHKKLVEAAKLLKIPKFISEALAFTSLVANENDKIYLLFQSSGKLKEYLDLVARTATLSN
T1 sequence (P36161 521-1157, chain 2 of 2): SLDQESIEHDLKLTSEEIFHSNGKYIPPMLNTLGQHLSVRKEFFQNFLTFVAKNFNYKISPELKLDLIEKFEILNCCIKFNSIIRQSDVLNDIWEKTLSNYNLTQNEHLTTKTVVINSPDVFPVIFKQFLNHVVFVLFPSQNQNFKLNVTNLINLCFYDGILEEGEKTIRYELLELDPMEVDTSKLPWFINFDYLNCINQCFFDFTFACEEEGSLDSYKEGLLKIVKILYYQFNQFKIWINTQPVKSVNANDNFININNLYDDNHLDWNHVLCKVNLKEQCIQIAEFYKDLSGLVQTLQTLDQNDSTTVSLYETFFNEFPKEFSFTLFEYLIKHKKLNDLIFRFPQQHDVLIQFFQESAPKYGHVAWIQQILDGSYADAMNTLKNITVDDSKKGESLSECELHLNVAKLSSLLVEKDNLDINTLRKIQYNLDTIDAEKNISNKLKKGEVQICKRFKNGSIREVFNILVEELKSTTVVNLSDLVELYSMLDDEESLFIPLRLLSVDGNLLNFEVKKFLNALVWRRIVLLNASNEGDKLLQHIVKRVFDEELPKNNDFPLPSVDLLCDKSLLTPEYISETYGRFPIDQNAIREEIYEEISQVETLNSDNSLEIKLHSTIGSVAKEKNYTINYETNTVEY

[2] = molecular target: T2, Nup84 (full-length, S. cerevisiae) (S. cerevisiae, UniProt P52891); assay: as above
T2 construct: Nup84, S. cerevisiae, full length; The tag is 3C-cleavable; also called scNup84
T2 sequence (P52891 whole entry): as the sequence (P52891 whole entry, chain 1 of 2) above

[3] = molecular target: T3, Nup133 N-terminal domain (Nup133NTD, residues 55-481) (S. cerevisiae, UniProt P36161); assay: crystal structure; Nup133NTD-VHH-SAN4, 2.1 Å, molecular replacement; crystals at 18 °C, PEG 3,350, ammonium sulfate, Bis-Tris/HCl pH 5.5
T3 construct: Nup133, S. cerevisiae, N-terminal beta-propeller, residues 55-481; The tag is 3C-cleavable; also called scNup133NTD; WT-Nup133NTD; source: E. coli LOBSTR-RIL(DE3), purified (Ni Sepharose, Superdex 75)
T3 sequence (P36161 55-481): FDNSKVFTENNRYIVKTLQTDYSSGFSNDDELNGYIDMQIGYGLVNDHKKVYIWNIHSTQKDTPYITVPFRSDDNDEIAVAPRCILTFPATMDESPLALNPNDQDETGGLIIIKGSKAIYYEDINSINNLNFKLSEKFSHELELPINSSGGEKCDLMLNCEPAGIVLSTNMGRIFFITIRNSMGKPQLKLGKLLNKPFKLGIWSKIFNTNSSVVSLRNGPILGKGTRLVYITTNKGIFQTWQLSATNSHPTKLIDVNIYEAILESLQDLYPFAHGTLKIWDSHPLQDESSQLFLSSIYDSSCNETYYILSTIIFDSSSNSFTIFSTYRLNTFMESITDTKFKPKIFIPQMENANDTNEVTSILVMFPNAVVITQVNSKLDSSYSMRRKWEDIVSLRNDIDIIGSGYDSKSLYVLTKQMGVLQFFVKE

[4] = molecular target: T3, Nup133 N-terminal domain (Nup133NTD, …); assay: crystal structure; Nup133NTD-VHH-SAN5, 2.8 Å, molecular replacement; six copies in the asymmetric unit; crystals at 18 °C, PEG MME 2,000, potassium chloride, Tris/HCl pH 8
[5] = molecular target: T1, Nup84-Nup133CTD heterodimeric complex; assay: crystal structure; Nup84-Nup133CTD-VHH-SAN8, 6.4 Å, SAD with a polyoxotungstate derivative; crystals at 18 °C, PEG 8,000, ethylene glycol, imidazole/MES pH 6.5
[6] = molecular target: T2, Nup84 (full-length, S. cerevisiae); assay: as above

B1: VHH-SAN9 (VHH)
VHH: QVQLVESGGGSVQAGGSLRLSCAVSGGTLSTLAMGWFRQAPGQEREFVARIGWTNGDTGYADSVKGRFTISRDNVKNTVYLQMNNLKPEDTALYYCATRRPYGSTLYPPNTESAHDNWGQGTQVTVSS
notes: structure deposited as PDB 6X03 (the model is a nanobody without CDRs placed as a rigid body); Selected by phage display from an alpaca immunised with the full-length Y complex; also called VHH9; nanobody VHH-SAN9; source: E. coli, purified (Ni Sepharose, tag cut with SEN-p protease, Superdex 75); not shown: 14xHis bdSUMO, N-terminal, cleaved
[1]
  binding result: binds
[2]
  binding result: binds

B2: VHH-SAN4 (VHH)
VHH: QLQLVESGGGSVQAGGSLTLSCTASESISKRIHGIGWFRQRRGEQREEIAYITTGGRPNLGDSVKDRFTISRDKSNGTVYLQMNSLKPEDTAVYYCHGRGRWWGTEGRLDYWGQGTQVTVSS
notes: structure deposited as PDB 6X05 (2.1 Å, nanobody chain); Selected by phage display from an alpaca immunised with the full-length Y complex, panned against Nup133NTD; also called nanobody VHH-SAN4; source: E. coli, purified (Ni Sepharose, tag cut with SEN-p protease, Superdex 75); not shown: 14xHis bdSUMO, N-terminal, cleaved
[3]
  binding result: binds

B3: VHH-SAN5 (VHH)
VHH: QVQLVESGGGLVQAGGSLRLSCAASGSIGSLDAMAWYRRAPGKQRERVASISRYGTYYVDSVKGRFTISRDNAKNTVYLQMNSLKPEDTGVYYCKGVMEVGGVIDEYWGQGTQVTVSS
notes: structure deposited as PDB 6X04 (2.8 Å, nanobody chains); Selected by phage display from an alpaca immunised with the full-length Y complex, panned against Nup133NTD; also called nanobody VHH-SAN5; source: E. coli, purified (Ni Sepharose, tag cut with SEN-p protease, Superdex 75); not shown: 14xHis bdSUMO, N-terminal, cleaved
[4]
  binding result: binds

B4: VHH-SAN8 (VHH)
VHH: QLQLVETGGGLVQAGGSLRLSCVASGRTFTSYAMGWFRQAPGKEREFVAAISRLASGTDYADSVKGRFTISRNNDKNTVYLQMNNLIPEDTAVYYCAALQALRFSLPIAMATMKNGRADSWGQGTQVTVSS
notes: structure deposited as PDB 6X02 and 6X03 (the model is a generic nanobody without CDRs, PDB 1BZQ, placed as a rigid body); Selected by phage display from an alpaca immunised with the full-length Y complex, panned against Nup84; also called VHH8; nanobody VHH-SAN8; source: E. coli, purified (Ni Sepharose, tag cut with SEN-p protease, Superdex 75); not shown: 14xHis bdSUMO, N-terminal, cleaved
[5]
  binding result: binds
[6]
  binding result: binds
